In paper PMC4846087:

Assays:
GST (27 kDa GST protein) = assay: SEC; Superdex 200 10/300 GL pre-equilibrated with L buffer (40 mM Tris-base, 200 mM NaCl, 1 mM EDTA, 5% glycerol, 5 mM DTT, pH 8.0); eluate of the GST affinity column loaded; molecular weights of the peaks estimated from the column manufacturer's instructions; peaks analysed by SDS-PAGE
[1] = molecular target: GST-tagged VirB9-1 (not stated | Anaplasma marginale); assay: as above

Row | stoichiometry N (GST (27 kDa GST protein)) | Substance | stoichiometry N [1]
1 | 2 | GST (27 kDa GST protein) (natural protein) | –
2 | – | GST-tagged VirB9-1 | 2
